# Measurements from patent publication US12338277.
# How the values were obtained:
# Assay in all cases: cell-based or functional assay
# [1] = target: HIV-1 Env of pseudovirus 191821_E6_1 (HIV-1)
# [2] = target: HIV-1 Env of pseudovirus 211-9 (HIV-1)
# [3] = target: HIV-1 Env of pseudovirus 249M B10 (HIV-1)
# [4] = target: HIV-1 Env of pseudovirus 3365.v2.c2 (HIV-1)
# [5] = target: HIV-1 Env of pseudovirus 6244_13_85_4576 (HIV-1)
# [6] = target: HIV-1 Env of pseudovirus 6480.v4.c25 (HIV-1)
# [7] = target: HIV-1 Env of pseudovirus 6535.3 (HIV-1)
# [8] = target: HIV-1 Env of pseudovirus 6811.v7.c18 (HIV-1)
# [9] = target: HIV-1 Env of pseudovirus 9004SS_A3_4 (HIV-1)
# [10] = target: HIV-1 Env of pseudovirus BJOX025000.01.1 (HIV-1)
# [11] = target: HIV-1 Env of pseudovirus CNE19 (HIV-1)
# [12] = target: HIV-1 Env of pseudovirus CNE58 (HIV-1)
# [13] = target: HIV-1 Env of pseudovirus CNE8 (HIV-1)
# [14] = target: HIV-1 Env of pseudovirus Ce1172_H1 (HIV-1)
# [15] = target: HIV-1 Env of pseudovirus Ce1176_A3 (HIV-1)
# [16] = target: HIV-1 Env of pseudovirus Ce2060_G9 (HIV-1)
# [17] = target: HIV-1 Env of pseudovirus Du156.12 (HIV-1)
# [18] = target: HIV-1 Env of pseudovirus RHPA4259.7 (HIV-1)
# [19] = target: HIV-1 Env of pseudovirus THRO4156.18 (HIV-1)
# [20] = target: HIV-1 Env of pseudovirus ZM109F.PB4 (HIV-1)
# [21] = target: HIV-1 Env of pseudovirus ZM233M.PB6 (HIV-1)
# [22] = target: HIV-1 envelope of pseudovirus 1394C9G1(Rev-) (HIV-1)
# [23] = target: HIV-1 envelope of pseudovirus 231966.c02 (HIV-1)
# [24] = target: HIV-1 envelope of pseudovirus 263-8 (HIV-1)
# [25] = target: HIV-1 envelope of pseudovirus 62357_14_03_4589 (HIV-1)
# [26] = target: HIV-1 envelope of pseudovirus 6535.3 (HIV-1)
# [27] = target: HIV-1 envelope of pseudovirus 6545.v4.c1 (HIV-1)
# [28] = target: HIV-1 envelope of pseudovirus 6811.v7.c18 (HIV-1)
# [29] = target: HIV-1 envelope of pseudovirus A07412M1.vrc12 (HIV-1)
# [30] = target: HIV-1 envelope of pseudovirus BF1266.431a (HIV-1)
# [31] = target: HIV-1 envelope of pseudovirus BJOX028000.10.3 (HIV-1)
# [32] = target: HIV-1 envelope of pseudovirus C2101.c01 (HIV-1)
# [33] = target: HIV-1 envelope of pseudovirus CNE17 (HIV-1)
# [34] = target: HIV-1 envelope of pseudovirus CNE5 (HIV-1)
# [35] = target: HIV-1 envelope of pseudovirus CNE52 (HIV-1)
# [36] = target: HIV-1 envelope of pseudovirus CNE58 (HIV-1)
# [37] = target: HIV-1 envelope of pseudovirus CNE8 (HIV-1)
# [38] = target: HIV-1 envelope of pseudovirus Ce1176_A3 (HIV-1)
# [39] = target: HIV-1 envelope of pseudovirus Ce2060_G9 (HIV-1)
# [40] = target: HIV-1 envelope of pseudovirus Ce703010054_2A2 (HIV-1)
# [41] = target: HIV-1 envelope of pseudovirus Du172.17 (HIV-1)
# [42] = target: HIV-1 envelope of pseudovirus MS208.A1 (HIV-1)
# [43] = target: HIV-1 envelope of pseudovirus QH0692.42 (HIV-1)
# [44] = target: HIV-1 envelope of pseudovirus RHPA4259.7 (HIV-1)
# [45] = target: HIV-1 envelope of pseudovirus T255-34 (HIV-1)
# [46] = target: HIV-1 envelope of pseudovirus THRO4156.18 (HIV-1)
# [47] = target: HIV-1 envelope of pseudovirus YU-2 (HIV-1)
# [48] = target: HIV-1 envelope of pseudovirus ZM214M.PL15 (HIV-1)
# [49] = target: HIV-1 envelope of pseudovirus ZM247v1(Rev-) (HIV-1)
# [50] = target: HIV-1 envelope spike of pseudovirus QH0692.42 (HIV-1)
# [51] = target: HIV-1 envelope spike of pseudovirus TRJO4551.58 (HIV-1)
# 10-1074 (antibody), sequence (VH): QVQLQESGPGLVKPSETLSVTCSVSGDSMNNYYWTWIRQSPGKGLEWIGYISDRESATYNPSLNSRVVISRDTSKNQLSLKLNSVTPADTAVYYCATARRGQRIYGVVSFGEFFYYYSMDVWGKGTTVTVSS
# 10-1074 (antibody), sequence (V domain): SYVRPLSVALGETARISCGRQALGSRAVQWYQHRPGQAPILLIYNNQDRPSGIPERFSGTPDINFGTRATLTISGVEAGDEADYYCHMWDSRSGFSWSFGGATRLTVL
substance,measurement,setting,value
10-1074 (antibody),IC80 (TZM-bl neutralization),[1],> 50 µg/mL
same,IC80 (TZM-bl neutralization),[2],0.425 µg/mL
same,IC80 (TZM-bl neutralization),[3],> 50 µg/mL
same,IC80 (TZM-bl neutralization),[4],0.45 µg/mL
same,IC80 (TZM-bl neutralization),[5],0.922 µg/mL
same,IC80 (TZM-bl neutralization),[6],0.041 µg/mL
same,IC80 (TZM-bl neutralization),[7],0.026 µg/mL
same,IC80 (TZM-bl neutralization),[8],0.01 µg/mL
same,IC80 (TZM-bl neutralization),[9],0.03 µg/mL
same,IC80 (TZM-bl neutralization),[10],> 50 µg/mL
same,IC80 (TZM-bl neutralization),[11],> 50 µg/mL
same,IC80 (TZM-bl neutralization),[12],0.968 µg/mL
same,IC80 (TZM-bl neutralization),[13],> 50 µg/mL
same,IC80 (TZM-bl neutralization),[14],0.166 µg/mL
same,IC80 (TZM-bl neutralization),[15],0.07 µg/mL
same,IC80 (TZM-bl neutralization),[16],> 50 µg/mL
same,IC80 (TZM-bl neutralization),[17],0.076 µg/mL
same,IC80 (TZM-bl neutralization),[18],0.118 µg/mL
same,IC80 (TZM-bl neutralization),[19],> 50 µg/mL
same,IC80 (TZM-bl neutralization),[20],> 50 µg/mL
same,IC80 (TZM-bl neutralization),[21],0.349 µg/mL
same,IC50 (TZM-bl neutralization),[22],0.05 µg/mL
same,IC50 (TZM-bl neutralization),[23],> 50 µg/mL
same,IC50 (TZM-bl neutralization),[24],0.666 µg/mL
same,IC50 (TZM-bl neutralization),[25],> 50 µg/mL
same,IC50 (TZM-bl neutralization),[26],0.014 µg/mL
same,IC50 (TZM-bl neutralization),[27],> 50 µg/mL
same,IC50 (TZM-bl neutralization),[28],0.002 µg/mL
same,IC50 (TZM-bl neutralization),[29],< 0.001 µg/mL
same,IC50 (TZM-bl neutralization),[30],> 50 µg/mL
same,IC50 (TZM-bl neutralization),[31],> 50 µg/mL
same,IC50 (TZM-bl neutralization),[32],> 50 µg/mL
same,IC50 (TZM-bl neutralization),[33],2.69 µg/mL
same,IC50 (TZM-bl neutralization),[34],> 50 µg/mL
same,IC50 (TZM-bl neutralization),[35],1.23 µg/mL
same,IC50 (TZM-bl neutralization),[36],0.267 µg/mL
same,IC50 (TZM-bl neutralization),[37],> 50 µg/mL
same,IC50 (TZM-bl neutralization),[38],0.018 µg/mL
same,IC50 (TZM-bl neutralization),[39],> 50 µg/mL
same,IC50 (TZM-bl neutralization),[40],> 50 µg/mL
same,IC50 (TZM-bl neutralization),[41],0.121 µg/mL
same,IC50 (TZM-bl neutralization),[42],> 50 µg/mL
same,IC50 (TZM-bl neutralization),[43],0.191 µg/mL
same,IC50 (TZM-bl neutralization),[44],0.021 µg/mL
same,IC50 (TZM-bl neutralization),[45],> 50 µg/mL
same,IC50 (TZM-bl neutralization),[46],> 50 µg/mL
same,IC50 (TZM-bl neutralization),[47],0.143 µg/mL
same,IC50 (TZM-bl neutralization),[48],0.174 µg/mL
same,IC50 (TZM-bl neutralization),[49],0.042 µg/mL
same,IC50 (TZM-bl neutralization assay),[50],0.259 µg/mL
same,IC80 (TZM-bl neutralization assay),[50],0.861 µg/mL
same,IC50 (TZM-bl neutralization assay),[51],0.17 µg/mL
same,IC80 (TZM-bl neutralization assay),[51],0.693 µg/mL
PGT121 (antibody),IC80 (TZM-bl neutralization),[1],> 50 µg/mL
same,IC80 (TZM-bl neutralization),[2],8.84 µg/mL
same,IC80 (TZM-bl neutralization),[3],> 50 µg/mL
same,IC80 (TZM-bl neutralization),[4],7.35 µg/mL
same,IC80 (TZM-bl neutralization),[5],1.88 µg/mL
same,IC80 (TZM-bl neutralization),[6],0.079 µg/mL
same,IC80 (TZM-bl neutralization),[7],0.021 µg/mL
same,IC80 (TZM-bl neutralization),[8],0.017 µg/mL
same,IC80 (TZM-bl neutralization),[9],0.026 µg/mL
same,IC80 (TZM-bl neutralization),[10],> 50 µg/mL
same,IC80 (TZM-bl neutralization),[11],0.189 µg/mL
same,IC80 (TZM-bl neutralization),[12],> 50 µg/mL
same,IC80 (TZM-bl neutralization),[13],> 50 µg/mL
same,IC80 (TZM-bl neutralization),[14],0.088 µg/mL
same,IC80 (TZM-bl neutralization),[15],0.058 µg/mL
same,IC80 (TZM-bl neutralization),[16],> 50 µg/mL
same,IC80 (TZM-bl neutralization),[17],0.033 µg/mL
same,IC80 (TZM-bl neutralization),[18],0.054 µg/mL
same,IC80 (TZM-bl neutralization),[19],> 50 µg/mL
same,IC80 (TZM-bl neutralization),[20],> 50 µg/mL
same,IC80 (TZM-bl neutralization),[21],8.98 µg/mL
same,IC50 (TZM-bl neutralization),[22],0.486 µg/mL
same,IC50 (TZM-bl neutralization),[23],> 50 µg/mL
same,IC50 (TZM-bl neutralization),[24],3.35 µg/mL
same,IC50 (TZM-bl neutralization),[25],1.04 µg/mL
same,IC50 (TZM-bl neutralization),[26],0.008 µg/mL
same,IC50 (TZM-bl neutralization),[27],> 50 µg/mL
same,IC50 (TZM-bl neutralization),[28],0.004 µg/mL
same,IC50 (TZM-bl neutralization),[29],0.001 µg/mL
same,IC50 (TZM-bl neutralization),[30],> 50 µg/mL
same,IC50 (TZM-bl neutralization),[31],> 50 µg/mL
same,IC50 (TZM-bl neutralization),[32],> 50 µg/mL
same,IC50 (TZM-bl neutralization),[33],45.3 µg/mL
same,IC50 (TZM-bl neutralization),[34],> 50 µg/mL
same,IC50 (TZM-bl neutralization),[35],3.74 µg/mL
same,IC50 (TZM-bl neutralization),[36],> 50 µg/mL
same,IC50 (TZM-bl neutralization),[37],> 50 µg/mL
same,IC50 (TZM-bl neutralization),[38],0.017 µg/mL
same,IC50 (TZM-bl neutralization),[39],> 50 µg/mL
same,IC50 (TZM-bl neutralization),[40],> 50 µg/mL
same,IC50 (TZM-bl neutralization),[41],0.115 µg/mL
same,IC50 (TZM-bl neutralization),[42],> 50 µg/mL
same,IC50 (TZM-bl neutralization),[43],1.04 µg/mL
same,IC50 (TZM-bl neutralization),[44],0.014 µg/mL
same,IC50 (TZM-bl neutralization),[45],6.72 µg/mL
same,IC50 (TZM-bl neutralization),[46],> 50 µg/mL
same,IC50 (TZM-bl neutralization),[47],0.098 µg/mL
same,IC50 (TZM-bl neutralization),[48],0.236 µg/mL
same,IC50 (TZM-bl neutralization),[49],0.027 µg/mL
same,IC50 (TZM-bl neutralization assay),[50],1.08 µg/mL
same,IC50 (TZM-bl neutralization assay),[51],3.9 µg/mL
same,IC80 (TZM-bl neutralization assay),[51],26.9 µg/mL
